Three molecules from patent publication US9192657B2, “Activated protein C variants with normal cytoprotective activity but reduced anticoagulant activity” (The Scripps Research Institute, dated 2015) can be followed below.

Assay [1] has as its target T1, endothelial protein C receptor (EPCR) on cells (Homo sapiens (Human), UniProt Q9UNN8).
T1 sequence: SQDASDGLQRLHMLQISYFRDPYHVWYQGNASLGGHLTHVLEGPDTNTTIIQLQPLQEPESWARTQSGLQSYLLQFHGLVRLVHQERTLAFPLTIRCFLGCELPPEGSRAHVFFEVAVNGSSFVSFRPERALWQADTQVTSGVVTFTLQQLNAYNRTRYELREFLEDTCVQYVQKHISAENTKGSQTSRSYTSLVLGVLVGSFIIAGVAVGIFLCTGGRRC
Nature of the assay: cell-based or functional assay.

For assay [2], the target named is T2, protease activated receptor-1 (PAR-1) (Homo sapiens (Human), UniProt P25116).
T2 sequence: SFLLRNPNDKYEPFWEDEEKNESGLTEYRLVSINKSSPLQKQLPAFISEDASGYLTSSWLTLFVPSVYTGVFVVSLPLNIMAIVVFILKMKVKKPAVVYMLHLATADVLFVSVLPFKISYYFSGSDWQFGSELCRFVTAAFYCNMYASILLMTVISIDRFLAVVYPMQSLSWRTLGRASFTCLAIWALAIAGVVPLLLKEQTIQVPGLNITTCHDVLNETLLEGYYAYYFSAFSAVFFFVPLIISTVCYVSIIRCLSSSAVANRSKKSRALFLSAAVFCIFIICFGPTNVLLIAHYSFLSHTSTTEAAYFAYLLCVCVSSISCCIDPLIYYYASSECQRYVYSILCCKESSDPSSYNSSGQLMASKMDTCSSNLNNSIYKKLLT
Description: cell-based or functional assay.

Assay [3] has as its target T3, endothelial protein C receptor (EPCR), as in the binding assays (Homo sapiens (Human), UniProt Q9UNN8).
T3 sequence: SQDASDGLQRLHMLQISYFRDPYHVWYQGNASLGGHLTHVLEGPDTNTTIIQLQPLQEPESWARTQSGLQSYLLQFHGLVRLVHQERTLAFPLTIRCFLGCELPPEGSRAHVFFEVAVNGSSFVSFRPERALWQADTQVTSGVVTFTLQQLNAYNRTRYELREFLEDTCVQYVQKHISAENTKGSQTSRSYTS
Description: apparent Kd; binding to immobilized soluble EPCR and to K293 cells transfected with wtEPCR (format of the value not told).

Assay [4] has as its target T1, endothelial protein C receptor (EPCR) …. Description: cell-based or functional assay. The source holds these as a separate data set.
Assay [5] concerns the target T2, protease activated receptor-1 (PAR-1). Nature of the assay: cell-based or functional assay. This is another data set of the same source.
In assay [6] the target is T1, endothelial protein C receptor (EPCR) …. Nature of the assay: cell-based or functional assay. This is another data set of the same source.
Assay [7] deals with T2, protease activated receptor-1 (PAR-1). Nature of the assay: cell-based or functional assay. The source holds these as a separate data set.
The next assay has as its target factor Va (human, UniProt P12259). Nature of the assay: cell-based or functional assay.

Substitutions are numbered along the chain they refer to. Names and notes keep the numbering of the source.

B1: RR229/230AA plus KKK191-193AAA-APC (enzyme)
chain: ANSFLEELRHSSLERECIEEICDFEEAKEIFQNVDDTLAFWSKHVDGDQCLVLPLEHPCASLCCGHGTCIDGIGSFSCDCRSGWEGRFCQREVSFLNCSLDNGGCTHYCLEEVGWRRCSCAPGYKLGDDLLQCHPAVKFPCGRPWKRMEKKRSHLKRDTEDQEDQVDPRLIDGKMTRRGDSPWQVVLLDSAAALACGAVLIHPSWVLTAAHCMDESKKLLVRLGEYDLAAWEKWELDLDIKEVFVHPNYSKSTTDNDIALLHLAQPATLSQTIVPICLPDSGLAERELNQAGQETLVTGWGYHSSREKEAKRNRTFVLNFIKIPVVPHNECSEVMSNMVSENMLCAGILGDRQDACEGDSGGPMVASFHGTWFLVGLVSWGEGCGLLHNYGVYTKVSRYLDWIHGHIRDKEAPQKSWAP
With B1, the “half-maximum inhibition of staurosporine-induced endothelial cell apoptosis (Example 5)” value in assay [1] and in assay [2] was 0.7 nM in each case. Besides, the Kd in assay [3] was 29 nM.

B2: R306A/K311A/R312A/R314A-APC (enzyme)
chain: B1 chain with A191K, A192K, A193K, A229R, A230R, R306A, K311A, R312A, R314A
With B2, the “cytoprotective activity (% wt-APC), staurosporine-induced apoptosis of Eahy926 cells” value in assay [4] and in assay [5] was less than 1 % wt-APC throughout.

B3: KKK191-193AAA-APC (enzyme)
chain: B1 chain with A229R, A230R
For the molecule B3, the “half-maximum inhibition of staurosporine-induced apoptosis (EA.hy926 cells, Apopercentage dye)” value in assay [1] and in assay [2] was 0.14 nM each time. Besides, the “half-maximum inhibition of staurosporine-induced apoptosis (Eahy926 cells, Apopercentage staining)” value in assay [1] and in assay [2] was 0.2 nM in each case. For the same molecule, the “reduction of activated caspase-3-positive endothelial cells after staurosporine” value in assay [1] and in assay [2] was approximately 70% in each case. Also, the “cytoprotective activity (% wt-APC)” value in assay [4] and in assay [5] was 120 % wt-APC throughout. Moreover, the “cytoprotective activity (% rwt-APC), from the concentrations for half-maximal inhibition of apoptosis” value in assay [6] and in assay [7] was 114 % rwt-APC in each case. For the same molecule, the “anticoagulant activity (% rwt-APC), APTT clotting assay in human plasma” value in the assay with factor Va was 4.6 % rwt-APC.
